Source: patent publication US20180344832A1

Biological target: PDL1 on the surface of TC-1 cells (murine (TC-1 murine tumor cell line)) (UniProt Q9EP73)
Assay: flow cytometry on TC-1 cells, isotype background control

UniProt Q9EP73, sequence (Q9EP73 19-290): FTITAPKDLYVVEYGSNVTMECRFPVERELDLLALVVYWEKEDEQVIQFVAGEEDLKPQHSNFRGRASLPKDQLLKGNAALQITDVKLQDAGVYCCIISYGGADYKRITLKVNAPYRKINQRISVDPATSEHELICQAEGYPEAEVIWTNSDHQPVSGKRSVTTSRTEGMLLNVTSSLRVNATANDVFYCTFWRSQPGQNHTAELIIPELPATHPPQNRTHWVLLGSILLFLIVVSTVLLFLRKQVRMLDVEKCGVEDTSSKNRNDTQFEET

median fluorescent intensity (MFI): 184 MFI
Substance: PE-conjugated isotype control antibody
